This note sets out measurements from PMC10786891, “Massively parallel profiling of RNA-targeting CRISPR-Cas13d”.

Sequences and labels used below:
T1: EsCas13d, nuclease-dead (Eubacterium siraeum, UniProt B0MS50, R295A;H300A;R849A;H854A)
T1 sequence: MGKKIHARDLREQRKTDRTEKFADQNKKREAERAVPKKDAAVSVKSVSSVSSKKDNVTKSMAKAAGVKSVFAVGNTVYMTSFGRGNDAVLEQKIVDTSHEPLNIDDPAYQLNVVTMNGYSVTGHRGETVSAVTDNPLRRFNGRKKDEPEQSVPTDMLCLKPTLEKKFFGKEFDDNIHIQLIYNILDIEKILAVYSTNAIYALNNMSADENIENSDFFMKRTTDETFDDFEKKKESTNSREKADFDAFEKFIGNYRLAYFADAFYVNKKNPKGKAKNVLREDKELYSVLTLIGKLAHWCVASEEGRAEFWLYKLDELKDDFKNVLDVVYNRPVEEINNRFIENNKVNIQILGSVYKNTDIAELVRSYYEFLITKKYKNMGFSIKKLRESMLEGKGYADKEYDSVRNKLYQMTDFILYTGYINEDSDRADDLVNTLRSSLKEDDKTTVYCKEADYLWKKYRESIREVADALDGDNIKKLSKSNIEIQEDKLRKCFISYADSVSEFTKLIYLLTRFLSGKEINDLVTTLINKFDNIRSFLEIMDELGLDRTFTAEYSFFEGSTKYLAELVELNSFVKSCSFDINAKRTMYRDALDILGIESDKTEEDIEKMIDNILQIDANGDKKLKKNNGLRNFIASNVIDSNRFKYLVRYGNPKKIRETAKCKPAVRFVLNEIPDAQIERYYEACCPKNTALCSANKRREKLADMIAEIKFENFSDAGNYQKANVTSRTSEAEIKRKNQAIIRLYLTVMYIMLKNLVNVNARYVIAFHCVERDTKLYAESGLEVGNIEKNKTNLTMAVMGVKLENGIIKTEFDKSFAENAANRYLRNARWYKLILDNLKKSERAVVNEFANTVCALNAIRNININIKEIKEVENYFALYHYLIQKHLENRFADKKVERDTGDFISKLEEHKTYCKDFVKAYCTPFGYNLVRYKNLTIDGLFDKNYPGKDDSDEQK

B1: target 1 insG 3' of 4,insC 3' of 1 (mixed)
RNA 1: CACCCGUGCAAAAAUGCAGGGGUCUAAAACUGAGCGGAUAACCUCUCUAUGG
RNA 2: GGGAAUGGAUCCACAUCUACGAAUUCGUACCAUAGAGAGGUUAUCCGCGUCACCCGAGAUCGGAAGAGCACACGU
B2: target 2 MT 5'PFS GAC 3'PFS ACG (mixed)
RNA 1: CACCCGUGCAAAAUUGCAGGGGUCUAAAACCUUCUCCAAAUUGUUUCAUCCU
RNA 2: GGGAAUGGAUCCACAUCUACGAAUUCGACAGGAUGAAACAAUUUGGAGAAGACGAGAUCGGAAGAGCACACGU
B3: target 2 MT 5'PFS GAA 3'PFS AUC (mixed)
RNA 1: CACCCGUGCAAAAUUGCAGGGGUCUAAAACCUUCUCCAAAUUGUUUCAUCCU
RNA 2: GGGAAUGGAUCCACAUCUACGAAUUCGAAAGGAUGAAACAAUUUGGAGAAGAUCAGAUCGGAAGAGCACACGU
B4: target 2 MT 5'PFS ACU 3'PFS CUA (mixed)
RNA 1: CACCCGUGCAAAAUUGCAGGGGUCUAAAACCUUCUCCAAAUUGUUUCAUCCU
RNA 2: GGGAAUGGAUCCACAUCUACGAAUUCACUAGGAUGAAACAAUUUGGAGAAGCUAAGAUCGGAAGAGCACACGU
B5: target 2 MT 5'PFS GAA 3'PFS AUA (mixed)
RNA 1: CACCCGUGCAAAAUUGCAGGGGUCUAAAACCUUCUCCAAAUUGUUUCAUCCU
RNA 2: GGGAAUGGAUCCACAUCUACGAAUUCGAAAGGAUGAAACAAUUUGGAGAAGAUAAGAUCGGAAGAGCACACGU
B6: target 2 MT 5'PFS CGA 3'PFS UUC (mixed)
RNA 1: CACCCGUGCAAAAUUGCAGGGGUCUAAAACCUUCUCCAAAUUGUUUCAUCCU
RNA 2: GGGAAUGGAUCCACAUCUACGAAUUCCGAAGGAUGAAACAAUUUGGAGAAGUUCAGAUCGGAAGAGCACACGU
B7: target 2 MT 5'PFS ACU 3'PFS CUG (mixed)
RNA 1: CACCCGUGCAAAAUUGCAGGGGUCUAAAACCUUCUCCAAAUUGUUUCAUCCU
RNA 2: GGGAAUGGAUCCACAUCUACGAAUUCACUAGGAUGAAACAAUUUGGAGAAGCUGAGAUCGGAAGAGCACACGU
B8: target 2 MT 5'PFS GAA 3'PFS AUG (mixed)
RNA 1: CACCCGUGCAAAAUUGCAGGGGUCUAAAACCUUCUCCAAAUUGUUUCAUCCU
RNA 2: GGGAAUGGAUCCACAUCUACGAAUUCGAAAGGAUGAAACAAUUUGGAGAAGAUGAGAUCGGAAGAGCACACGU
B9: target 2 MT 5'PFS ACU 3'PFS CUU (mixed)
RNA 1: CACCCGUGCAAAAUUGCAGGGGUCUAAAACCUUCUCCAAAUUGUUUCAUCCU
RNA 2: GGGAAUGGAUCCACAUCUACGAAUUCACUAGGAUGAAACAAUUUGGAGAAGCUUAGAUCGGAAGAGCACACGU
B10: target 2 MT 5'PFS GUA 3'PFS UGC (mixed)
RNA 1: CACCCGUGCAAAAUUGCAGGGGUCUAAAACCUUCUCCAAAUUGUUUCAUCCU
RNA 2: GGGAAUGGAUCCACAUCUACGAAUUCGUAAGGAUGAAACAAUUUGGAGAAGUGCAGAUCGGAAGAGCACACGU
B11: target 2 MT 5'PFS UAG 3'PFS UGA (mixed)
RNA 1: CACCCGUGCAAAAUUGCAGGGGUCUAAAACCUUCUCCAAAUUGUUUCAUCCU
RNA 2: GGGAAUGGAUCCACAUCUACGAAUUCUAGAGGAUGAAACAAUUUGGAGAAGUGAAGAUCGGAAGAGCACACGU
B12: target 2 MT 5'PFS GCC 3'PFS UCA (mixed)
RNA 1: CACCCGUGCAAAAUUGCAGGGGUCUAAAACCUUCUCCAAAUUGUUUCAUCCU
RNA 2: GGGAAUGGAUCCACAUCUACGAAUUCGCCAGGAUGAAACAAUUUGGAGAAGUCAAGAUCGGAAGAGCACACGU
B13: target 2 MT 5'PFS ACU 3'PFS CUC (mixed)
RNA 1: CACCCGUGCAAAAUUGCAGGGGUCUAAAACCUUCUCCAAAUUGUUUCAUCCU
RNA 2: GGGAAUGGAUCCACAUCUACGAAUUCACUAGGAUGAAACAAUUUGGAGAAGCUCAGAUCGGAAGAGCACACGU

This series concerns the target T1, EsCas13d, nuclease-dead. Description: crRNA (strand 1, pre-loaded); Mg2+; 40 mM Tris-HCl pH 7.5, 150 mM NaCl, 6 mM MgCl2, 1 mM DTT, 0.1% Tween-20, 0.2 mg/ml BSA; 25 C; 10 min per concentration, then washed. To be noted: tags: His6-TwinStrep-SUMO cleaved; N-terminal SNAP kept (SNAP-Surface 488); label: 3' end held by stalled T7 RNA polymerase.
B1 displayed a Kd of 12.6 ± 1 nM.

B2: the Kd was determined as 13.6 ± 2.1 nM.

In turn, B3 gave a Kd of 10.2 ± 1.6 nM.

In turn, B4 registered an equilibrium dissociation constant (Kd) of 3.5 ± 0.5 nM.

B5 yielded a Kd of 8.1 ± 1.4 nM.

B6: the Kd was 11.5 ± 1.9 nM.

Regarding B7, the Kd was 6 ± 0.7 nM.

B8 showed a Kd of 8.3 ± 1.1 nM.

The molecule B9 had a Kd of 6.2 ± 0.6 nM.

In the case of B10, binding was put at a Kd of 11.4 ± 1.5 nM.

In the case of B11, binding was characterised by a dissociation constant (Kd) of 4.1 ± 0.8 nM.

As for B12, the Kd turned out to be 17 ± 4 nM.

B13 registered a Kd of 5.4 ± 1.4 nM.
